{
  "source": "patent US12295997B2",
  "about": "“Prostate neoantigens and their uses” (Janssen Biotech, Inc., priority 2020, dated 2025)",
  "system": "CD8+ and CD4+ T cells (autologous CD3+ Pan-T cells isolated from human normal PBMCs)",
  "assay": "Exogenous autologous normal donor restimulation assay (15-mer overlapping peptide pools on CD1c+ dendritic cells, TNFα/IFNγ flow cytometry)",
  "format": "cell-based",
  "details": "15-mer overlapping peptide pool; for Maximum Fold Change Over Background CD4+ cells / Maximum Fold Change Over Background CD8+ cells / Maximum Frequency of TNFα/IFNγ Double Positive CD4+ T cells / Maximum Frequency of TNFα/IFNγ Double Positive CD8+ T cells: Table 25; for Maximum Fold Change Over Background CD4+ cells: TNFα+IFNγ+ CD4+ T cells; for Maximum Fold Change Over Background CD4+ cells / Maximum Fold Change Over Background CD8+ cells: highest fold change over negative control across normal donors; for Maximum Fold Change Over Background CD8+ cells: TNFα+IFNγ+ CD8+ T cells; for Maximum Frequency of TNFα/IFNγ Double Positive CD4+ T cells / Maximum Frequency of TNFα/IFNγ Double Positive CD8+ T cells: highest frequency across normal donors; for Max. Fold Change over background CD4+ TNFαINFγ double positive DP / Max. Fold Change over background CD8+ TNFαINFγ double positive DP / Max. Frequency of CD4+ TNFαINFγ DP / Max. Frequency of CD8+ TNFαINFγ DP: Table 28, additional neoantigens, highest across normal donors",
  "in_short": "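Readout was intracellular TNFα/IFNγ flow cytometry on live CD3+ CD8+ and CD4+ cells after day-11 peptide restimulation. Stimulators were CD1c+ dendritic cells loaded with overlapping 15-mer peptide pools (2.5–10 μg/mL), irradiated, and cultured 12 days with autologous normal-donor Pan-T cells plus IL-15/IL-2. A response counted when ≥3-fold over DMSO control and at least 0.01%.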",
  "data": [
    {"molecule": "LWFQSSELSPTGAPWPSRRPTWRGTTVSPRTATSSARTCCGTKWPSSQEAALGLGSGLLRFSCGTAAIR (peptide, listed as Homo sapiens, NME4->DECR2 gene fusion) LWFQSSELSPTGAPWPSRRPTWRGTTVSPRTATSSARTCCGTKWPSSQEAALGLGSGLLRFSCGTAAIR", "values": [
      {"measurement": "Maximum Fold Change Over Background CD4+ cells", "value": 36.13},
      {"measurement": "Maximum Fold Change Over Background CD8+ cells", "value": 8.89},
      {"measurement": "Maximum Frequency of TNFα/IFNγ Double Positive CD4+ T cells", "value": 0.04},
      {"measurement": "Maximum Frequency of TNFα/IFNγ Double Positive CD8+ T cells", "value": 0.16}
    ]},
    {"molecule": "PVAIKPGTGPPNNSSIHGGSKRSENSYCRDLRGQLRAICCSSYSHDRHTTEERGSRGRHVWRIRRLHTSGLPCCCHSGPHPRRLPDILRLVTSTKTDHTNTTEGTLDYL (peptide, listed as Homo sapiens, RBM47 alternative splicing) PVAIKPGTGPPNNSSIHGGSKRSENSYCRDLRGQLRAICCSSYSHDRHTTEERGSRGRHVWRIRRLHTSGLPCCCHSGPHPRRLPDILRLVTSTKTDHTNTTEGTLDYL", "values": [
      {"measurement": "Max. Fold Change over background CD4+ TNFαINFγ double positive DP", "value": 78.51},
      {"measurement": "Max. Fold Change over background CD8+ TNFαINFγ double positive DP", "value": 4.96},
      {"measurement": "Max. Frequency of CD4+ TNFαINFγ DP", "value": 0.61},
      {"measurement": "Max. Frequency of CD8+ TNFαINFγ DP", "value": 0.07}
    ]},
    {"molecule": "YAYKDFLWCFPFSLVFLQEIQICCHVSCLCCICCSTRICLGCLLELFLSRALRALHVLWNGFQLHCQ (peptide, listed as Homo sapiens) YAYKDFLWCFPFSLVFLQEIQICCHVSCLCCICCSTRICLGCLLELFLSRALRALHVLWNGFQLHCQ", "values": [
      {"measurement": "Maximum Fold Change Over Background CD4+ cells", "value": 111.97},
      {"measurement": "Maximum Fold Change Over Background CD8+ cells", "value": 4.17},
      {"measurement": "Maximum Frequency of TNFα/IFNγ Double Positive CD4+ T cells", "value": 0.87},
      {"measurement": "Maximum Frequency of TNFα/IFNγ Double Positive CD8+ T cells", "value": 0.08}
    ]},
    {"molecule": "KMRAIQAEGGHGQACCGGAWGWAPGDGGPQGMLTHTLPTLGFQSAWTWRREDADRAWRTPKACASRRWSI (peptide, listed as Homo sapiens, LRRC45 alternative splicing) KMRAIQAEGGHGQACCGGAWGWAPGDGGPQGMLTHTLPTLGFQSAWTWRREDADRAWRTPKACASRRWSI", "values": [
      {"measurement": "Max. Fold Change over background CD4+ TNFαINFγ double positive DP", "value": 9.48},
      {"measurement": "Max. Fold Change over background CD8+ TNFαINFγ double positive DP", "value": 16.25},
      {"measurement": "Max. Frequency of CD4+ TNFαINFγ DP", "value": 0.01},
      {"measurement": "Max. Frequency of CD8+ TNFαINFγ DP", "value": 0.26}
    ]},
    {"molecule": "FGLTTLAGRSSHGTSGLRAATHTKSGDGGQGAARQCEKLLELARATRPWGRSTSASSRWTHRGYMCPPRCAVACW (peptide, listed as Homo sapiens, PEX10 alternative splicing) FGLTTLAGRSSHGTSGLRAATHTKSGDGGQGAARQCEKLLELARATRPWGRSTSASSRWTHRGYMCPPRCAVACW", "values": [
      {"measurement": "Max. Fold Change over background CD4+ TNFαINFγ double positive DP", "value": 113.91},
      {"measurement": "Max. Fold Change over background CD8+ TNFαINFγ double positive DP", "value": 4.02},
      {"measurement": "Max. Frequency of CD4+ TNFαINFγ DP", "value": 0.43},
      {"measurement": "Max. Frequency of CD8+ TNFαINFγ DP", "value": 0.35}
    ]},
    {"molecule": "LLEPFRRGEPGPRGLLSGSSRGGEGPGRSIEAAPATPLPCCRKNPCRPQPSRFLPPRVLLVIILPKLDCPKLGF (peptide, listed as Homo sapiens, AMACR alternative splicing) LLEPFRRGEPGPRGLLSGSSRGGEGPGRSIEAAPATPLPCCRKNPCRPQPSRFLPPRVLLVIILPKLDCPKLGF", "values": [
      {"measurement": "Max. Fold Change over background CD4+ TNFαINFγ double positive DP", "value": 60.93},
      {"measurement": "Max. Fold Change over background CD8+ TNFαINFγ double positive DP", "value": 11.32},
      {"measurement": "Max. Frequency of CD4+ TNFαINFγ DP", "value": 0.23},
      {"measurement": "Max. Frequency of CD8+ TNFαINFγ DP", "value": 0.43}
    ]},
    {"molecule": "LQAAASGQGKQGVPCPWGCCAYAESPRALISGDAPSQVEREVPGPCLNTHSLSHRSPQLPGLPHPKQPSV (peptide, listed as Homo sapiens, TONSL alternative splicing) LQAAASGQGKQGVPCPWGCCAYAESPRALISGDAPSQVEREVPGPCLNTHSLSHRSPQLPGLPHPKQPSV", "values": [
      {"measurement": "Max. Fold Change over background CD4+ TNFαINFγ double positive DP", "value": 7.86},
      {"measurement": "Max. Fold Change over background CD8+ TNFαINFγ double positive DP", "value": 2.61},
      {"measurement": "Max. Frequency of CD4+ TNFαINFγ DP", "value": 0.11},
      {"measurement": "Max. Frequency of CD8+ TNFαINFγ DP", "value": 0.1}
    ]},
    {"molecule": "WGMELAASRRFSWDHHSAGGPPRVPSVRSGAAQVQPKDPLPLRTLAGCLARTAHLRPGAESLPQPQLHCT (peptide, listed as Homo sapiens, INCA1->CAMTA2 gene fusion) WGMELAASRRFSWDHHSAGGPPRVPSVRSGAAQVQPKDPLPLRTLAGCLARTAHLRPGAESLPQPQLHCT", "values": [
      {"measurement": "Maximum Fold Change Over Background CD4+ cells", "value": 7.15},
      {"measurement": "Maximum Fold Change Over Background CD8+ cells", "value": 1.89},
      {"measurement": "Maximum Frequency of TNFα/IFNγ Double Positive CD4+ T cells", "value": 0.04},
      {"measurement": "Maximum Frequency of TNFα/IFNγ Double Positive CD8+ T cells", "value": 0.08}
    ]},
    {"molecule": "QNLQNGGGSRSSATLPGRRRRRWLRRRRQPISVAPAGPPRRPNQKPNPPGGARCVIMRPTWPGTSAFT (peptide, listed as Homo sapiens, ZFHX3 E763Sfs*61) QNLQNGGGSRSSATLPGRRRRRWLRRRRQPISVAPAGPPRRPNQKPNPPGGARCVIMRPTWPGTSAFT", "values": [
      {"measurement": "Maximum Fold Change Over Background CD4+ cells", "value": 4.89},
      {"measurement": "Maximum Fold Change Over Background CD8+ cells", "value": 7.92},
      {"measurement": "Maximum Frequency of TNFα/IFNγ Double Positive CD4+ T cells", "value": 0.04},
      {"measurement": "Maximum Frequency of TNFα/IFNγ Double Positive CD8+ T cells", "value": 0.38}
    ]},
    {"molecule": "LLNAEDYRCAIHSKEIYLLSPSPHQAMDKFSLCCINCNLCLHVFLLLLFFQNKDVWLISNIILLWIYGGI (peptide, listed as Homo sapiens, TM9SF3 alternative splicing) LLNAEDYRCAIHSKEIYLLSPSPHQAMDKFSLCCINCNLCLHVFLLLLFFQNKDVWLISNIILLWIYGGI", "values": [
      {"measurement": "Max. Fold Change over background CD4+ TNFαINFγ double positive DP", "value": 128.76},
      {"measurement": "Max. Fold Change over background CD8+ TNFαINFγ double positive DP", "value": 6.35},
      {"measurement": "Max. Frequency of CD4+ TNFαINFγ DP", "value": 0.18},
      {"measurement": "Max. Frequency of CD8+ TNFαINFγ DP", "value": 0.6}
    ]},
    {"molecule": "PSGRRTKRLVTLRSGCAIQCWHPRAGPVPSALPHTERPPRLVRGAADPRTVTLGRSPAVMPRAPA (peptide, listed as Homo sapiens, CCNF alternative splicing) PSGRRTKRLVTLRSGCAIQCWHPRAGPVPSALPHTERPPRLVRGAADPRTVTLGRSPAVMPRAPA", "values": [
      {"measurement": "Max. Fold Change over background CD4+ TNFαINFγ double positive DP", "value": 129.8},
      {"measurement": "Max. Fold Change over background CD8+ TNFαINFγ double positive DP", "value": 1544.74},
      {"measurement": "Max. Frequency of CD4+ TNFαINFγ DP", "value": 0.49},
      {"measurement": "Max. Frequency of CD8+ TNFαINFγ DP", "value": 58.7}
    ]},
    {"molecule": "HYKLIQQPISLFSITDRLHKTFSQLPSVHLCSITFQWGHPPIFCSTNDICVTANFCISVTFLKPCFLLHEASASQ (peptide, listed as Homo sapiens) HYKLIQQPISLFSITDRLHKTFSQLPSVHLCSITFQWGHPPIFCSTNDICVTANFCISVTFLKPCFLLHEASASQ", "values": [
      {"measurement": "Maximum Fold Change Over Background CD4+ cells", "value": 50.19},
      {"measurement": "Maximum Fold Change Over Background CD8+ cells", "value": 5.56},
      {"measurement": "Maximum Frequency of TNFα/IFNγ Double Positive CD4+ T cells", "value": 0.39},
      {"measurement": "Maximum Frequency of TNFα/IFNγ Double Positive CD8+ T cells", "value": 0.1}
    ]},
    {"molecule": "KGSVERRSVSLGHPAEGWAWAERSLQPGMTTANTGCLSFHHRGCLLPVLPKLHCGLGGLPLVRAKEIKRVQRAGESSLPVKGLLTVASAVIAVLWGRPSEVTGENEAQHD (peptide, listed as Homo sapiens, ILDR1 alternative splicing) KGSVERRSVSLGHPAEGWAWAERSLQPGMTTANTGCLSFHHRGCLLPVLPKLHCGLGGLPLVRAKEIKRVQRAGESSLPVKGLLTVASAVIAVLWGRPSEVTGENEAQHD", "values": [
      {"measurement": "Max. Fold Change over background CD4+ TNFαINFγ double positive DP", "value": 184.87},
      {"measurement": "Max. Fold Change over background CD8+ TNFαINFγ double positive DP", "value": 6.85},
      {"measurement": "Max. Frequency of CD4+ TNFαINFγ DP", "value": 0.63},
      {"measurement": "Max. Frequency of CD8+ TNFαINFγ DP", "value": 0.1}
    ]},
    {"molecule": "FVSLTAIQMASSATPWGRWPVATPTAACPRRRPSSLPTGGDSASKKPISRRAPWQPWACPGRSVNSAAPRAWCPPATTPRTQSPSRDLRPRCLSSWSS (peptide, listed as Homo sapiens, FASN alternative splicing) FVSLTAIQMASSATPWGRWPVATPTAACPRRRPSSLPTGGDSASKKPISRRAPWQPWACPGRSVNSAAPRAWCPPATTPRTQSPSRDLRPRCLSSWSS", "values": [
      {"measurement": "Max. Fold Change over background CD4+ TNFαINFγ double positive DP", "value": 293.94},
      {"measurement": "Max. Fold Change over background CD8+ TNFαINFγ double positive DP", "value": 4.72},
      {"measurement": "Max. Frequency of CD4+ TNFαINFγ DP", "value": 1.48},
      {"measurement": "Max. Frequency of CD8+ TNFαINFγ DP", "value": 0.09}
    ]}
  ]
}
